Measurements taken from the supplement of paper PMC9732359.
± gives the uncertainty stated by the source.

Assay: protein stability index of a GFP-peptide fusion (yeast GPS) (PSI 1-4); higher = more stable; sorted into four equal gates, so the index is relative within each strain
How it was run: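 Plasmids isolated from each sorting gate were PCR-amplified and Illumina-sequenced, and barcodes assigned the reads to strains. The gates, four of equal size, were set by GFP/Cherry fluorescence ratio on mid-log cultures in leucine-free medium. These cultures were yeast carrying a pooled library of tiled 17-residue yeast protein peptides fused downstream of GFP on a plasmid that also expresses Cherry. The protein stability index is the sum of every gate's read frequency times its gate number.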

Sequence	protein stability index (doa10∆)	protein stability index (pdr5∆)	protein stability index (san1∆)	protein stability index (ubr1∆)
KPKMLPIPSKPTLFDLA [SRP68]	2.48 ± 0.071	2.54 ± 0.072	2.31 ± 0.099	2.53 ± 0.06
VGVIIFILTIATAFLGY [COB]	2.31 ± 0.07	1.84 ± 0.052	1.82 ± 0.072	2.63 ± 0.039
ELKNELAKTKENYDAKI [YIL149C/MLP2]	3.22 ± 0.073	3.43 ± 0.071	3.15 ± 0.052	3.08 ± 0.076
STKSNKTRNPLTHSTPK [RPL8A]	2.44 ± 0.29	1.95 ± 0.14	–	1.88 ± 0.15
EEIVVVASADYESQTFS [PRP8]	3.14 ± 0.069	3.5 ± 0.095	3.24 ± 0.054	3.3 ± 0.057
QEMIEISNVIKPNQTIM [SRP54]	2.62 ± 0.23	2.21 ± 0.079	–	1.96 ± 0.1
VAEKMNGCSGADVKGVC [RPT6]	3.41 ± 0.24	–	3.19 ± 0.23	3.07 ± 0.11
DDVYRPAAESKIFTPNL [SNF5]	2.82 ± 0.085	3.09 ± 0.11	–	3.23 ± 0.19
DTEMKMKSLLTELSNKE [YIL149C/MLP2]	3.31 ± 0.065	3.44 ± 0.058	3.21 ± 0.045	3.35 ± 0.049
NPMVPSSVNEDTFLPPP [PRP8]	3.05 ± 0.058	3.32 ± 0.06	3.01 ± 0.04	3.1 ± 0.043
QLKTGLAAIVSTVIEEF [YGL172W/NUP49]	2.93 ± 0.094	2.79 ± 0.08	2.83 ± 0.1	3.04 ± 0.076
SVPLMINAKNIAFASNY [RRP43]	1.57 ± 0.06	1.53 ± 0.051	1.27 ± 0.14	1.41 ± 0.052
ASELDESKDSIQDLIVK [SMC3]	3.3 ± 0.085	3.04 ± 0.12	3.18 ± 0.13	3.33 ± 0.14
GKPTVNKKPKNKKKGRK [SRP72]	3.42 ± 0.084	3.29 ± 0.1	2.93 ± 0.1	3.24 ± 0.092
YLLSIWVKKFKWAGIKT [CYT1]	2.38 ± 0.16	1.57 ± 0.099	2.17 ± 0.098	2.29 ± 0.17
ANNQEYDLNFKLRETLV [SMC1]	–	–	3.63 ± 0.18	3.41 ± 0.21
FNSVKSFDEWFNTPFAN [SNF2]	2.9 ± 0.091	3.14 ± 0.082	3.43 ± 0.085	3.26 ± 0.11
SVINNYLREDQMIDTSI [NUT1]	2.99 ± 0.074	3.32 ± 0.1	3.32 ± 0.083	2.84 ± 0.082
WSEITESMSYLPDPILK [MCD1]	–	2.97 ± 0.18	2.92 ± 0.23	2.64 ± 0.1
IELLSYLVEAPWNDDYP [YML103C/NUP188]	1.68 ± 0.093	2.04 ± 0.15	–	2.49 ± 0.17
CEQQPSQEREFSLLVKA [SIN4]	3.01 ± 0.077	3.07 ± 0.08	2.94 ± 0.054	3.04 ± 0.045
TFEQFKDTIVKEAEDKT [RPC37]	–	–	–	2.43 ± 0.29
LPLLILENSSRSPRVVT [NUT1]	1.76 ± 0.054	2 ± 0.046	2.258 ± 0.015	1.94 ± 0.039
LKGKINNEMKSLQRSKS [SMC1]	–	3.34 ± 0.19	3.11 ± 0.2	3.44 ± 0.099

Sequence	protein stability index (doa10∆)	protein stability index (pdr5∆)	protein stability index (san1∆)	protein stability index (ubr1∆)
SGKSNILDAICFVLGIA [SMC2]	1.85 ± 0.07	1.86 ± 0.087	2.25 ± 0.11	1.82 ± 0.066
RNSVKLLSKLLLKHPFK [YCS4]	2.41 ± 0.042	2.1 ± 0.038	1.92 ± 0.056	2.07 ± 0.04
RFVMPNQLLAALVAYTP [RRP6]	1.83 ± 0.041	1.84 ± 0.045	1.39 ± 0.07	1.71 ± 0.032
EQDILDLIAEQVVTDYN [SSN2]	3 ± 0.17	3.44 ± 0.12	3.08 ± 0.18	2.47 ± 0.14
VEFINKMENFEFLPLSL [SRB8]	3.08 ± 0.16	3 ± 0.069	3.1 ± 0.12	3.16 ± 0.097
FSEVYEYNRLKVQDAIE [LIN1]	2.71 ± 0.059	2.17 ± 0.055	3.04 ± 0.076	2.89 ± 0.086
PEENATEGPSDKKLNLN [SNF12]	–	3.59 ± 0.17	3.27 ± 0.099	3.29 ± 0.1
GNQQQQLQQQPQMQCAL [YGL172W/NUP49]	2.79 ± 0.17	2.66 ± 0.19	2.87 ± 0.1	–
IQVAAFIYGMSAKDHPK [PRP8]	3.24 ± 0.091	2.98 ± 0.12	3.19 ± 0.082	3.17 ± 0.12
PASKQGYLITPPKHTEL [SSN2]	–	3.31 ± 0.3	2.49 ± 0.17	–
QLYEDLCRYEDTLSKLV [MED4]	2.62 ± 0.097	2.67 ± 0.16	2.75 ± 0.27	3.25 ± 0.09
VERIQKMIEKIEKMSTI [YIL149C/MLP2]	3.13 ± 0.29	3.41 ± 0.14	2.81 ± 0.19	–
SKNCYLSEATESDLYKL [RPB2]	3.02 ± 0.12	3.22 ± 0.14	2.9 ± 0.17	2.75 ± 0.093
LNDPSLKIQFILSTTLD [SIN4]	1.11 ± 0.055	1.45 ± 0.074	1.32 ± 0.14	1.18 ± 0.042
VIPIRRGYWGTNLGQPH [RPS2]	2.04 ± 0.074	1.67 ± 0.11	1.91 ± 0.18	1.79 ± 0.13
VVLFNRQPSLHRLSILS [RPO31]	1.65 ± 0.054	1.88 ± 0.053	1.44 ± 0.096	1.63 ± 0.047
QEKMDPNNSRDDYKDLT [IRR1]	3.33 ± 0.078	3.27 ± 0.083	3.23 ± 0.066	3.25 ± 0.076
SLVSTQSSSSTRSHEYG [REC8]	2.86 ± 0.08	3.04 ± 0.11	2.72 ± 0.057	3.19 ± 0.12
LGKGGAKRHRKILRDNI [HHF1]	3.36 ± 0.26	3.21 ± 0.17	3.4 ± 0.19	2.99 ± 0.14
GMTKSNIYNFSPSERIE [BRR2]	3.18 ± 0.082	3.38 ± 0.082	3.01 ± 0.19	2.96 ± 0.059
KAAISFGAKPEEQKSSD [YJL041W/NSP1]	3.12 ± 0.13	2.94 ± 0.2	3.5 ± 0.17	3.1 ± 0.12
TKFKVRGSSSLYTLVIN [RPL38]	2.08 ± 0.074	1.32 ± 0.09	1.55 ± 0.13	2.13 ± 0.09
SSFSKKTLTEEVTKSSH [YIL149C/MLP2]	2.69 ± 0.054	2.88 ± 0.058	2.77 ± 0.071	3.09 ± 0.048
EGHLAEIRAKEYKTSSD [SRB2]	3.22 ± 0.11	3.29 ± 0.081	3.18 ± 0.051	3.26 ± 0.078
